From paper PMC7367260, “Nucleosome binding by the pioneer transcription factor OCT4” (Scientific Reports, 2020)

Key:
human histone H4 = molecular target: T1, human histone H4 (human, UniProt P62805 1-103); assay: cross-linking; XL-MS: LIN28B nucleosome (4.3 µM) mixed with OCT4 at nucleosome:OCT4 = 1:4, 1 h on ice, crosslinked with 9.6 mM DSS-H12/D12 at 30 °C for 30 min; Trypsin/Lys-C digest, LC/MS-MS, xQuest/xProphet; settings: both partners purified
T1 construct: histone H4, human canonical histone, wild type; Stood in the assays as part of the reconstituted LIN28B nucleosome; The H4 S47C mutant was used only for the chemical probing assay

human histone H3.1 = human histone H3.1 (human, UniProt P68431 1-136); assay: as above; settings: both partners purified

B1: His6-tagged human OCT4 (5CS) (natural protein)
chain: MAGHLASDFAFSPPPGGGGDGPGGPEPGWVDPRTWLSFQGPPGGPGIGPGVGPGSEVWGIPPCPPPYEFCGGMAYCGPQVGVGLVPQGGLETSQPEGEAGVGVESNSDGASPEPCTVTPGAVKLEKEKLEQNPEESQDIKALQKELEQFAKLLKQKRITLGYTQADVGLTLGVLFGKVFSQTTISRFEALQLSFKNMSKLRPLLQKWVEEADNNENLQEISKAETLVQARKRKRTSIENRVRGNLENLFLQSPKPTLQQISHIAQQLGLEKDVVRVWFSNRRQKGKRSSSDYAQREDFEAAGSPFSGGPVSFPLAPGPHFGTPGYGSPHFTALYSSVPFPEGEAFPPVSVTTLGSPMHSN
notes: OCT4, human; 5CS mutant: all 5 Cys residues of the POUS·POUHD domain replaced with Ser; Expressed from pET15b in which the thrombin site was replaced with a PreScission site; no cleavage step is described, and the gel-shift methods name His6-OCT4 (5CS). pET15b would place the tag at the N-terminus (surmised); also called His6-OCT4 (5CS)
B1: binds (human histone H4); binds (human histone H3.1).
